These results are taken from PMC7192624, “A Snu114–GTP–Prp8 module forms a relay station for efficient splicing in yeast” (Nucleic Acids Research, 2020).

To fix the notation:
B1: Prp8^SBR Δ402–406 (domain or fragment, yeast, UniProt P33334 315-555, looked up)
chain: STPLRDEVTDKNYYYLFDKKSFFNGKALNNAIPGGPKFEPLYPREEEEDYNEFNSIDRVIFRVPIRSEYKVAFPHLYNSRPRSVRIPVSCIIQNDEEYDTPALFFDPSLNPIPHFIDNNSSLNVSNTKENGDFTLPEDFAPLLAEEEELILPNTKDAMSLYHSPFPFNRTKGKMVRAQDVALAKKWFLQHPDEEYPVKVKVSYQKLLKNYVLNELHPTLPTNHNKTKLLKSLKNTK
notes: also called Prp8^Δ402–406; source: insect cells, co-produced with Snu114; complex purified; not shown: Strep tag (from the vector pFL-N-Strep), N-terminal, kept
B2: Prp8^SBR 402–406_5S (domain or fragment, yeast, UniProt P33334 315-555, looked up)
chain: STPLRDEVTDKNYYYLFDKKSFFNGKALNNAIPGGPKFEPLYPREEEEDYNEFNSIDRVIFRVPIRSEYKVAFPHLYNSRPRSVRIPSSSSSVSCIIQNDEEYDTPALFFDPSLNPIPHFIDNNSSLNVSNTKENGDFTLPEDFAPLLAEEEELILPNTKDAMSLYHSPFPFNRTKGKMVRAQDVALAKKWFLQHPDEEYPVKVKVSYQKLLKNYVLNELHPTLPTNHNKTKLLKSLKNTK
notes: also called Prp8^402–406_5S; source: insect cells, co-produced with Snu114; complex purified; not shown: Strep tag (from the vector pFL-N-Strep), N-terminal, kept
B3: Prp8^SBR WY402-403AA (domain or fragment)
chain: not shown
notes: also called Prp8^WY402/3AA; source: insect cells, co-produced with Snu114; complex purified; not shown: Strep tag (from the vector pFL-N-Strep), N-terminal, kept
B4: Prp8^SBR Y403F (domain or fragment, yeast, UniProt P33334 315-555, looked up)
chain: STPLRDEVTDKNYYYLFDKKSFFNGKALNNAIPGGPKFEPLYPREEEEDYNEFNSIDRVIFRVPIRSEYKVAFPHLYNSRPRSVRIPWFNNPVSCIIQNDEEYDTPALFFDPSLNPIPHFIDNNSSLNVSNTKENGDFTLPEDFAPLLAEEEELILPNTKDAMSLYHSPFPFNRTKGKMVRAQDVALAKKWFLQHPDEEYPVKVKVSYQKLLKNYVLNELHPTLPTNHNKTKLLKSLKNTK
notes: also called Prp8^Y403F; source: insect cells, co-produced with Snu114; complex purified; not shown: Strep tag (from the vector pFL-N-Strep), N-terminal, kept
B5: Prp8^SBR Y403A (domain or fragment, yeast, UniProt P33334 315-555, looked up)
chain: STPLRDEVTDKNYYYLFDKKSFFNGKALNNAIPGGPKFEPLYPREEEEDYNEFNSIDRVIFRVPIRSEYKVAFPHLYNSRPRSVRIPWANNPVSCIIQNDEEYDTPALFFDPSLNPIPHFIDNNSSLNVSNTKENGDFTLPEDFAPLLAEEEELILPNTKDAMSLYHSPFPFNRTKGKMVRAQDVALAKKWFLQHPDEEYPVKVKVSYQKLLKNYVLNELHPTLPTNHNKTKLLKSLKNTK
notes: also called Prp8^Y403A; source: insect cells, co-produced with Snu114; complex purified; not shown: Strep tag (from the vector pFL-N-Strep), N-terminal, kept
B6: Prp8^SBR Δ421–468 (domain or fragment, yeast, UniProt P33334 315-555, looked up)
chain: STPLRDEVTDKNYYYLFDKKSFFNGKALNNAIPGGPKFEPLYPREEEEDYNEFNSIDRVIFRVPIRSEYKVAFPHLYNSRPRSVRIPWYNNPVSCIIQNDEEYDTPILPNTKDAMSLYHSPFPFNRTKGKMVRAQDVALAKKWFLQHPDEEYPVKVKVSYQKLLKNYVLNELHPTLPTNHNKTKLLKSLKNTK
notes: also called Prp8^Δ421–468; source: insect cells, co-produced with Snu114; complex purified; not shown: Strep tag (from the vector pFL-N-Strep), N-terminal, kept
B7: Aar2 (natural protein, yeast, UniProt P32357 1-355, looked up)
chain: MNTVPFTSAPIEVTIGIDQYSFNVKENQPFHGIKDIPIGHVHVIHFQHADNSSMRYGYWFDCRMGNFYIQYDPKDGLYKMMEERDGAKFENIVHNFKERQMMVSYPKIDEDDTWYNLTEFVQMDKIRKIVRKDENQFSYVDSSMTTVQENELLKSSLQKAGSKMEAKNEDDPAHSLNYTVINFKSREAIRPGHEMEDFLDKSYYLNTVMLQGIFKNSSNYFGELQFAFLNAMFFGNYGSSLQWHAMIELICSSATVPKHMLDKLDEILYYQIKTLPEQYSDILLNERVWNICLYSSFQKNSLHNTEKIMENKYPELLGKDNEDDALIYGISDEERDDEDDEHNPTIVGGLYYQRP
notes: Aar2, U5 snRNP assembly factor, yeast; synthetic gene; source: complex purified (StrepTactin, Heparin, Mono Q, SEC); not shown: Strep tag (from the vector pIDK-C-Strep), C-terminal, kept
B8: Snu114^72-1008 (yeast Snu114 lacking the acidic N-terminal region) (domain or fragment, UniProt P36048 72-1008, looked up)
chain: KEVEVLMETKNTQSPQTPLVEPVTERTKLQEHTIFTQLKKNIPKTRYNRDYMLSMANIPERIINVGVIGPLHSGKTSLMDLLVIDSHKRIPDMSKNVELGWKPLRYLDNLKQEIDRGLSIKLNGSTLLCTDLESKSRMINFLDAPGHVNFMDETAVALAASDLVLIVIDVVEGVTFVVEQLIKQSIKNNVAMCFVINKLDRLILDLKLPPMDAYLKLNHIIANINSFTKGNVFSPIDNNIIFASTKLGFTFTIKEFVSYYYAHSIPSSKIDDFTTRLWGSVYYHKGNFRTKPFENVEKYPTFVEFILIPLYKIFSYALSMEKDKLKNLLRSNFRVNLSQEALQYDPQPFLKHVLQLIFRQQTGLVDAITRCYQPFELFDNKTAHLSIPGKSTPEGTLWAHVLKTVDYGGAEWSLVRIYSGLLKRGDTVRILDTSQSESRQKRQLHDISKTETSNEDEDEDDETPSCEVEEIGLLGGRYVYPVHEAHKGQIVLIKGISSAYIKSATLYSVKSKEDMKQLKFFKPLDYITEAVFKIVLQPLLPRELPKLLDALNKISKYYPGVIIKVEESGEHVILGNGELYMDCLLYDLRASYAKIEIKISDPLTVFSESCSNESFASIPVSNSISRLGEENLPGLSISVAAEPMDSKMIQDLSRNTLGKGQNCLDIDGIMDNPRKLSKILRTEYGWDSLASRNVWSFYNGNVLINDTLPDEISPELLSKYKEQIIQGFYWAVKEGPLAEEPIYGVQYKLLSISVPSDVNIDVMKSQIIPLMKKACYVGLLTAIPILLEPIYEVDITVHAPLLPIVEELMKKRRGSRIYKTIKVAGTPLLEVRGQVPVIESAGFETDLRLSTNGLGMCQLYFWHKIWRKVPGDVLDKDAFIPKLKPAPINSLSRDFVMKTRRRKGISTGGFMSNDGPTLEKYISAELYAQLRENGLVP
notes: synthetic gene; Co-purifies with endogenous GTP; source: insect cells (MultiBac baculovirus); co-produced with Prp8 constructs or alone; purified (StrepTactin, SEC); not shown: Strep tag (from the vector pIDS-C-Strep), C-terminal, kept
B9: Prp8 residues 315-555 (Prp8^SBR), chymotryptic fragment (domain or fragment, yeast, UniProt P33334 315-555, looked up)
chain: STPLRDEVTDKNYYYLFDKKSFFNGKALNNAIPGGPKFEPLYPREEEEDYNEFNSIDRVIFRVPIRSEYKVAFPHLYNSRPRSVRIPWYNNPVSCIIQNDEEYDTPALFFDPSLNPIPHFIDNNSSLNVSNTKENGDFTLPEDFAPLLAEEEELILPNTKDAMSLYHSPFPFNRTKGKMVRAQDVALAKKWFLQHPDEEYPVKVKVSYQKLLKNYVLNELHPTLPTNHNKTKLLKSLKNTK

One test addresses B8. As to the kind of experiment: SEC; two proteins co-produced in insect cells, both Strep-tagged; StrepTactin capture, then SEC on Superdex S200 in 10 mM TRIS-HCl pH 8.0, 300 mM NaCl, 2 mM DTT; co-purification of wt and variant complexes. Particulars: both partners purified. Background: In gel filtration, larger molecules generally elute earlier.
As for B1, the binding result is recorded as “binds”.
The same measure, in the same setting: then B2, with “binds”; and B3, with “binds”.
As for B4, the binding result is given as “binds”.
On the same count and under the same terms, then B5, with “binds”; and B6, with “binds”.

In another test the target is T1, Prp8^132-2413 (large fragment of yeast Prp8 lacking the first 131 residues) (yeast, UniProt P33334 132-2413).
T1 construct: Prp8, yeast, residues 132-2413; synthetic gene; methods and results print 132-2413; source: complex purified (StrepTactin, Heparin, Mono Q, SEC); not shown: Strep tag (from the vector pFL-C-Strep), C-terminal, kept
The test can be described thus: SEC; three proteins co-produced in insect cells, all Strep-tagged; complex purified by StrepTactin, Heparin, Mono Q and SEC (Superose 6, 50 mM TRIS-HCl pH 8.5, 300 mM NaCl, 2 mM DTT); analytical gel filtration with SDS-PAGE of fractions. The settings on record: both partners purified.
On to B7, for which the binding result is “binds”.
Same read-out and setting: then B8, with “binds”.

The target of another test is B8. As to the kind of experiment: SEC; limited proteolysis of the purified trimeric complex with chymotrypsin (room temperature, 35 min), then SEC on Superose 6 Increase in 20 mM TRIS-HCl pH 8.5, 500 mM NaCl, 2 mM DTT; fragments identified by mass spectrometric fingerprinting and N-terminal sequencing. The settings on record: both partners purified.
As to B9, the binding result is “binds”.
